Data published in US20260015399A1 (Boehringer Ingelheim, published 2026).
*1 amine or outer side, *2 acyl side, *3 side chain or, on linkers, in order; H or OH if unused. Side-chain parts run from the residue outwards. The star is where a group is joined. C18 diacid = O=C(O)CCCCCCCCCCCCCCCCC(=O)*; γGlu = O=C(O)[C@H](CCC(=O)[*:2])N[*:1]; Isovaleryl = CC(C)CC(=O)*; Ahx = NCCCCCC(=O)O

T1: human NPY2 receptor (human, UniProt P49146 1-381)
T1 construct: whole, on cells; also called hNPY2-R; hNPY2R
T1 sequence (looked up): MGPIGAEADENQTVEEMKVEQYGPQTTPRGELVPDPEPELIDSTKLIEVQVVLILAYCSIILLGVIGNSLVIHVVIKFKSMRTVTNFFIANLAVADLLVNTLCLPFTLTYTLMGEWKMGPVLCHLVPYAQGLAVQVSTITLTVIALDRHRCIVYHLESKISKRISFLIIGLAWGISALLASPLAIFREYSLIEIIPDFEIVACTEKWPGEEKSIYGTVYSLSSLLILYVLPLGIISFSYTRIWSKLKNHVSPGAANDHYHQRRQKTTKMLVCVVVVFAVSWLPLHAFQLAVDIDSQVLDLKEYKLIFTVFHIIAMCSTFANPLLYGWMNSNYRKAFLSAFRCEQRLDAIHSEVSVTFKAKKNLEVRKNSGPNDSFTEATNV


Target: T1, human NPY2 receptor
Assay: RLB: displacement of 125I-PYY(1-36) from hNPY2R membranes

Binder	Ki [nM]
Isovaleryl-APEK([Ahx-γGlu-C18 diacid])PEEDATPEEIQRYYQSLRHYYNWLTRQRY-NH2 (SMILES CC[C@H](C)[C@H](NC(=O)[C@H](CCC(=O)O)NC(=O)[C@H](CCC(=O)O)NC(=O)[C@@H]1CCCN1C(=O)[C@@H](NC(=O)[C@H](C)NC(=O)[C@H](CC(=O)O)NC(=O)[C@H](CCC(=O)O)NC(=O)[C@H](CCC(=O)O)NC(=O)[C@@H]1CCCN1C(=O)[C@H](CCCCNC(=O)CCCCCNC(=O)CC[C@H](NC(=O)CCCCCCCCCCCCCCCCC(=O)O)C(=O)O)NC(=O)[C@H](CCC(=O)O)NC(=O)[C@@H]1CCCN1C(=O)[C@H](C)NC(=O)CC(C)C)[C@@H](C)O)C(=O)N[C@@H](CCC(N)=O)C(=O)N[C@@H](CCCNC(=N)N)C(=O)N[C@@H](Cc1ccc(O)cc1)C(=O)N[C@@H](Cc1ccc(O)cc1)C(=O)N[C@@H](CCC(N)=O)C(=O)N[C@@H](CO)C(=O)N[C@@H](CC(C)C)C(=O)N[C@@H](CCCNC(=N)N)C(=O)N[C@@H](Cc1c[nH]cn1)C(=O)N[C@@H](Cc1ccc(O)cc1)C(=O)N[C@@H](Cc1ccc(O)cc1)C(=O)N[C@@H](CC(N)=O)C(=O)N[C@@H](Cc1c[nH]c2ccccc12)C(=O)N[C@@H](CC(C)C)C(=O)N[C@H](C(=O)N[C@@H](CCCNC(=N)N)C(=O)N[C@@H](CCC(N)=O)C(=O)N[C@@H](CCCNC(=N)N)C(=O)N[C@@H](Cc1ccc(O)cc1)C(N)=O)[C@@H](C)O) [Compound 164]	2.8
Isovaleryl-APAK([Ahx-γGlu-C18 diacid])PEEDASPEELQRYYVELRHYYNWLTRQRY-NH2 (SMILES CC(C)CC(=O)N[C@@H](C)C(=O)N1CCC[C@H]1C(=O)N[C@@H](C)C(=O)N[C@@H](CCCCNC(=O)CCCCCNC(=O)CC[C@H](NC(=O)CCCCCCCCCCCCCCCCC(=O)O)C(=O)O)C(=O)N1CCC[C@H]1C(=O)N[C@@H](CCC(=O)O)C(=O)N[C@@H](CCC(=O)O)C(=O)N[C@@H](CC(=O)O)C(=O)N[C@@H](C)C(=O)N[C@@H](CO)C(=O)N1CCC[C@H]1C(=O)N[C@@H](CCC(=O)O)C(=O)N[C@@H](CCC(=O)O)C(=O)N[C@@H](CC(C)C)C(=O)N[C@@H](CCC(N)=O)C(=O)N[C@@H](CCCNC(=N)N)C(=O)N[C@@H](Cc1ccc(O)cc1)C(=O)N[C@@H](Cc1ccc(O)cc1)C(=O)N[C@H](C(=O)N[C@@H](CCC(=O)O)C(=O)N[C@@H](CC(C)C)C(=O)N[C@@H](CCCNC(=N)N)C(=O)N[C@@H](Cc1c[nH]cn1)C(=O)N[C@@H](Cc1ccc(O)cc1)C(=O)N[C@@H](Cc1ccc(O)cc1)C(=O)N[C@@H](CC(N)=O)C(=O)N[C@@H](Cc1c[nH]c2ccccc12)C(=O)N[C@@H](CC(C)C)C(=O)N[C@H](C(=O)N[C@@H](CCCNC(=N)N)C(=O)N[C@@H](CCC(N)=O)C(=O)N[C@@H](CCCNC(=N)N)C(=O)N[C@@H](Cc1ccc(O)cc1)C(N)=O)[C@@H](C)O)C(C)C) [Compound 166]	2.05
